Molecular target: T1, full-length MUC1 glycoprotein of HT29-MTX cells (Homo sapiens, HT29-MTX cells, UniProt P15941, VNTR heavily O-linked glycosylated)
T1 construct: Mucin 1 (MUC1), endogenous in the human colon cancer cell line HT29-MTX; band at an estimated 600 kD; written here as one chain; also called Mucin 1; source: endogenous, HT29-MTX lysate (Western blot) and fixed, permeabilized HT29-MTX monolayers (immunofluorescence)
Experiment: far-Western, overlay or dot blot; immunoblot of SDS lysates of HT29-MTX and HT29-MTX ΔMUC1 cells on a mucin-SDS gel, PVDF; 139H2 antibodies 1:1,000 in TSMT with 1% BSA, 1 h at RT; detected with anti-mouse IgG
Details: one partner purified

T1 sequence (P15941 24-1255): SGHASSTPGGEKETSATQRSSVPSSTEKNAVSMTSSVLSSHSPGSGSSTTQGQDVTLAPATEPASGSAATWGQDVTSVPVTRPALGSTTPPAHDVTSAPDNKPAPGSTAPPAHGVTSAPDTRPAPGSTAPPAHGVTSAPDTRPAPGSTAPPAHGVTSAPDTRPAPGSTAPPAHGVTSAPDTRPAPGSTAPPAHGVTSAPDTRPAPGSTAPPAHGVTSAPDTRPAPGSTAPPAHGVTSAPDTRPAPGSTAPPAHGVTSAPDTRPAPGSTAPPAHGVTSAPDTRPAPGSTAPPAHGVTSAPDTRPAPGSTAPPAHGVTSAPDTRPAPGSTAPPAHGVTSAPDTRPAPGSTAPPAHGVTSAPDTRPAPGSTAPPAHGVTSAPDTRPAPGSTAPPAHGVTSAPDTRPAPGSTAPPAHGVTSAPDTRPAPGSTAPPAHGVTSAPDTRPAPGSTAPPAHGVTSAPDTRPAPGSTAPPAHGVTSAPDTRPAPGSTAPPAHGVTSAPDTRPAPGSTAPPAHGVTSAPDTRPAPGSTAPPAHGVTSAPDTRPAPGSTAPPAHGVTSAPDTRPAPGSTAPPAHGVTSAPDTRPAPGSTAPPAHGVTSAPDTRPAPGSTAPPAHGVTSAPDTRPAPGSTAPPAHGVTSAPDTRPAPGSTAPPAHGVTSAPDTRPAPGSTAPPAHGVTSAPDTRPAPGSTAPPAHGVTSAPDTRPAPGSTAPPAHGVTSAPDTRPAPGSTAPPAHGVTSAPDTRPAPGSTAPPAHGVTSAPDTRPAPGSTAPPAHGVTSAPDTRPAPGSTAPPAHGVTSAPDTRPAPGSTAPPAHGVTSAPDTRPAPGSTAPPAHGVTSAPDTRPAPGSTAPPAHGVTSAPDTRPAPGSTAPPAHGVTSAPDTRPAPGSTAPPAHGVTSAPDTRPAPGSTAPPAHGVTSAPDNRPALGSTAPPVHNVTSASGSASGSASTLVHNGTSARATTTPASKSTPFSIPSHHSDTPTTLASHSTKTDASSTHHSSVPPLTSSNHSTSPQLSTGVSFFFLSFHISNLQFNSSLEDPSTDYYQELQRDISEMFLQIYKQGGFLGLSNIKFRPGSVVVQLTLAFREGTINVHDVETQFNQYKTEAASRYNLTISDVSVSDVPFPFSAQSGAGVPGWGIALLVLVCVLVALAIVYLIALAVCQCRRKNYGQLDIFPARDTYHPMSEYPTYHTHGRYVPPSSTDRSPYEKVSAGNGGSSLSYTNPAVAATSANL

Row | Binder | binding result
1 | hybridoma-derived 139H2 IgG (antibody, V domains shown, as the heavy-chain variable domain of m1 (IGHV1-53); as the light-chain variable domain of m1 (IGKV8-30); mouse kappa light-chain constant region; Mouse IgG1, kappa; also called original hybridoma-derived 139H2; 139H2 WT; source: hybridoma culture supernatant (gift, NKI), purified (Protein G Sepharose); copies: 2 + 2) VH: QVQLQQSGAELVKPGASVKLSCKASGYTFTNYYMYWVLQRPGQGLEWIGEINPSNGGTTFNEKFKNKATLTVDKSSSTAYMQLNSLTSEDSAVYYCTRSRYGNYVNYGMDYWGQGTSVTVSS VL: DIVMSQSPSSLAVSVGEKVTMSCKSSQSLLYSNTQKNYLAWYQQKPGQSPKLLIYWASTRESGVPDRFTGSGSGTDFTLTISSVKAENLAVYYCQQYYRYPPTFGGGTKLELK | binds
2 | recombinant 139H2 Fab fragment (Fab, V domains shown, as the heavy-chain variable domain of m1 (IGHV1-53); mouse Ig gamma-1 (IGHG1) Fab constant region; as the light-chain variable domain of m1 (IGKV8-30); mouse kappa light-chain constant region, as in m1; also called monovalent Fab fragment; anti-MUC1 Fab; source: HEK293 cells (ImmunoPrecise Antibodies), culture supernatant, purified (HisTrap Excel, Superdex 200 SEC)) VH: QVQLQQSGAELVKPGASVKLSCKASGYTFTNYYMYWVLQRPGQGLEWIGEINPSNGGTTFNEKFKNKATLTVDKSSSTAYMQLNSLTSEDSAVYYCTRSRYGNYVNYGMDYWGQGTSVTVSS VL: DIVMSQSPSSLAVSVGEKVTMSCKSSQSLLYSNTQKNYLAWYQQKPGQSPKLLIYWASTRESGVPDRFTGSGSGTDFTLTISSVKAENLAVYYCQQYYRYPPTFGGGTKLELK | binds
3 | recombinant (reverse-engineered) 139H2 IgG (antibody, V domains shown, also in PDB 8P6I; standard mouse Ig gamma-1 (IGHG1) constant region, linker and Fc region, UniProt P01868.1; mouse kappa light-chain constant region (kappa light-chain backbone); Mouse IgG1, kappa; also called synthetic recombinant 139H2; recombinant 139H2; source: HEK293 cells (ImmunoPrecise Antibodies), culture supernatant, purified (HisTrap Excel); copies: 2 + 2) VH: QVQLQQSGAELVKPGASVKLSCKASGYTFTNYYMYWVLQRPGQGLEWIGEINPSNGGTTFNEKFKNKATLTVDKSSSTAYMQLNSLTSEDSAVYYCTRSRYGNYVNYGMDYWGQGTSVTVSS VL: DIVMSQSPSSLAVSVGEKVTMSCKSSQSLLYSNTQKNYLAWYQQKPGQSPKLLIYWASTRESGVPDRFTGSGSGTDFTLTISSVKAENLAVYYCQQYYRYPPTFGGGTKLELK | binds

Reference: paper PMC10955041, “Reverse-engineering the anti-MUC1 antibody 139H2 by mass spectrometry–based de novo sequencing” (Life Science Alliance, 2024)
